How the values were obtained:
[1] = biological target: 新冠病毒S抗原 (on VSV-SARS-CoV-2 pseudovirus, wild type) (新型冠状病毒 (2019-nCoV / SARS-CoV-2), UniProt P0DTC2 14-1273); assay: cell-based or functional assay
带有组氨酸标签的S蛋白RBD = 带有组氨酸标签的S蛋白RBD (新型冠状病毒 (2019-nCoV / SARS-CoV-2), UniProt P0DTC2 319-541)

Binder	中和滴度(半数中和浓度，NC50), 2019-nCoV假病毒, Hela-hACE2, luciferase [1] [µg/mL]	Kd (带有组氨酸标签的S蛋白RBD) [nM]
双特异性抗体BS-mAb-2 (bispecific antibody) heavy: not shown light: DIVMTQSPSFLSASVGDRVTITCRASQGISSYLAWYQQKPGKAPKLLIYAASTLQSGVPSRFSGSGSGTEFTLTISSLQPEDFATYYCQQLNSYPPYTFGQGTKLEIKRTVAAPSVFIFPPSDEQLKSGTASVVCLLNNFYPREAKVQWKVDNALQSGNSQESVTEQDSKDSTYSLSSTLTLSKADYEKHKVYACEVTHQGLSSPVTKSFNRGECS	0.048	
双特异性抗体BS-mAb-1 (bispecific antibody) heavy: not shown light: DIQMTQSPLSLPVTPGEPASISCRSSQSLLDSDDGNTYLDWYLQKPGQSPQLLIYTLSYRASGVPDRFSGSGSGTDFTLKISRVEAEDVGVYYCMQRIEFPLTFGGGTKVEIKGGGGSGGGGSDIVMTQSPSFLSASVGDRVTITCRASQGISSYLAWYQQKPGKAPKLLIYAASTLQSGVPSRFSGSGSGTEFTLTISSLQPEDFATYYCQQLNSYPPYTFGQGTKLEIKRTVAAPSVFIFPPSDEQLKSGTASVVCLLNNFYPREAKVQWKVDNALQSGNSQESVTEQDSKDSTYSLSSTLTLSKADYEKHKVYACEVTHQGLSSPVTKSFNRGEC	0.119	
单抗B38 (antibody, V domains shown) VH: EVQLVESGGGLVQPGGSLRLSCAASGFIVSSNYMSWVRQAPGKGLEWVSVIYSGGSTYYADSVKGRFTISRHNSKNTLYLQMNSLRAEDTAVYYCAREAYGMDVWGQGTTVTVSS VL: DIVMTQSPSFLSASVGDRVTITCRASQGISSYLAWYQQKPGKAPKLLIYAASTLQSGVPSRFSGSGSGTEFTLTISSLQPEDFATYYCQQLNSYPPYTFGQGTKLEIK	0.681	22.5

Source: patent CN113563475A (INST MICROBIOLOGY CAS, dated 2021)
